For data set [1], the target named is T1, D-malate dehydrogenase (MDH) (Acinetobacter baumannii, UniProt A0ABX6CCN1).
T1 construct: gene dmlA; N-terminal His-tag fusion, tetramer
T1 sequence (A0ABX6CCN1 1-370): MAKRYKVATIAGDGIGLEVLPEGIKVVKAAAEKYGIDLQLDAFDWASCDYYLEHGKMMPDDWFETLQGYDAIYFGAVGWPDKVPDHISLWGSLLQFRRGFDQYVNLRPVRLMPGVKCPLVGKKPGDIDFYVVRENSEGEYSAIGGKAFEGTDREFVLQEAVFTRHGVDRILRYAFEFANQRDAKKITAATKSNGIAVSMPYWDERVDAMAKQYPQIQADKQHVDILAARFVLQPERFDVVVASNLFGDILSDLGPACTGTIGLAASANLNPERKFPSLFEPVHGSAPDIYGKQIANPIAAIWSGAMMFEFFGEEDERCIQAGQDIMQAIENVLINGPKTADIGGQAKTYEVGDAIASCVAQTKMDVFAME
Nature of the data set: spectroscopic NADH formation assay ([…] nm) with D-malate, varied inhibitor concentrations. It is filed as biochemical.

Data set [2] has as its target D-malate dehydrogenase (MDH) from A. baumannii, N-terminal His-tag fusion (Acinetobacter baumannii ATCC 19606). Nature of the data set: mass photometry; Refeyn TwoMP, 25 nM protein in PBS, 60 s movies, calibrated against NativeMark standard.
The target of data set [3] is T2, malic semialdehyde dehydrogenase (MSA-DH) (Acinetobacter baumannii, UniProt D0C9N7).
T2 construct: gene HMPREF0010_01350; N-terminal His-thioredoxin fusion, tetramer
T2 sequence (D0C9N7 1-483): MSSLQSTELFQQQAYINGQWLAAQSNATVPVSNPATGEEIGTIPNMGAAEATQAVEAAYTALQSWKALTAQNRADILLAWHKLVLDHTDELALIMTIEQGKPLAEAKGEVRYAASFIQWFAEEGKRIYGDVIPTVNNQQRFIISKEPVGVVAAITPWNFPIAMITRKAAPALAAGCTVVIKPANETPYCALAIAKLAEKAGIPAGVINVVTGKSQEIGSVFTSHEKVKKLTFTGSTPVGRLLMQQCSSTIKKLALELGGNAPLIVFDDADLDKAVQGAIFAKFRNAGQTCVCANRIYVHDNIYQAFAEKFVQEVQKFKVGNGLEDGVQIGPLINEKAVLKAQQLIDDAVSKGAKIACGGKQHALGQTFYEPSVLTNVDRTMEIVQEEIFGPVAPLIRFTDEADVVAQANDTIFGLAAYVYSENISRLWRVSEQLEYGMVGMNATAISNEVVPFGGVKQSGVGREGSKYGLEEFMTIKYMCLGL
Briefly: MSA depletion (MBTH) and NADH formation assays with […] NAD+. It is filed as biochemical.

For data set [4], the target named is malic semialdehyde dehydrogenase (MSA-DH) from A. baumannii, N-terminal His-thioredoxin fusion (Acinetobacter baumannii ATCC 19606). Nature of the data set: mass photometry; Refeyn TwoMP, 25 nM protein in PBS, 60 s movies, calibrated against NativeMark standard.
For data set [5] the target is unchanged. Briefly: crystal structure; X-ray, 2.6 A, space group P212121, 12 chains (three tetramers) in the asymmetric unit; protein at 40 mg/mL supplemented with 7 mM D-malate.
Data set [6] shares this target. Briefly: SEC; analytical size exclusion chromatography, Superdex 200 increase 5/150 GL, 20 mM HEPES-NaOH pH 7.5, 150 mM NaCl, 0.45 mL/min, 50 uL of 3 mg/mL protein injected, calibrated with protein standards.
Data set [7] deals with T3, carnitine monooxygenase oxygenase component CntA (Acinetobacter baumannii, UniProt D0C9N6).
T3 construct: CntA after on-column cleavage of GST tag; with CntB (reductase)
Briefly: MBTH aldehyde formation assay and L-carnitine depletion assay (specific activity). The class given is biochemical.

Data set [8] concerns the target T3, carnitine monooxygenase oxygenase component CntA. Briefly: MBTH aldehyde formation assay (specific activity). It is filed as biochemical.
Substrate in data set [9]: O=C(O)C[C@@H](O)C(=O)O
Briefly: purified protein. The class given is biochemical, Acinetobacter baumannii. Particulars: NAD+; Mg2+ or Mn2+.

Substrate in data set [10]: O=C[C@H](O)CC(=O)O
Nature of the data set: purified protein. The class given is biochemical, Acinetobacter baumannii. The note with it: NAD+ or NADP+ proposed from model: Arg166, Arg284, Ser447 bind the carboxylate; catalytic Cys290 (covalent hemithioacetal intermediate) and Glu256.

For the molecule `O=C(O)C(O)C(O)C(=O)O` (stereo not drawn) [meso-tartrate], in data set [1], the affinity, expressed as Ki, was 320 ± 80 µM. On to “D-malate dehydrogenase (MDH) from A. baumannii, N-terminal His-tag fusion (enzyme)”, for which the stoichiometry N (as a rule, the number of molecules, sites or subunits per partner or assembly) in data set [2] was determined as 4. Regarding `NC(=O)c1ccc[n+]([C@@H]2O[C@H](COP(=O)([O-])OP(=O)(O)OC[C@H]3O[C@@H](n4cnc5c(N)ncnc54)[C@H](O)[C@@H]3O)[C@@H](O)[C@H]2O)c1` [NAD^+], the “MSA depletion (MBTH) and NADH formation assays with 2 mM NAD+” value in data set [3] is reported as “MSA-DH can use NAD^+ or NADP^+ as a cofactor for the oxidation of the MSA substrate”. In the case of “malic semialdehyde dehydrogenase (MSA-DH) from A. baumannii, N-terminal His-thioredoxin fusion (enzyme)”, the stoichiometry N in data set [4], in data set [5] and in data set [6] was 4 each time. Regarding `C[N+](C)(C)C[C@H](O)CC(=O)[O-]` [L-carnitine], in [7], the “MBTH aldehyde formation assay and L-carnitine depletion assay (specific activity)” value was found to be 2.8 ± 0.2 µmol/min/mg. For `C[N+](C)(C)CCCC(=O)[O-]` [γ-butyrobetaine], the “MBTH aldehyde formation assay (specific activity)” value in data set [8] is 2.1 ± 0.2 µmol/min/mg.

B1: D-malate dehydrogenase (MDH) (Acinetobacter baumannii ATCC 19606 = CIP 70.34 = JCM 6841) (protein)
chain: MAKRYKVATIAGDGIGLEVLPEGIKVVKAAAEKYGIDLQLDAFDWASCDYYLEHGKMMPDDWFETLQGYDAIYFGAVGWPDKVPDHISLWGSLLQFRRGFDQYVNLRPVRLMPGVKCPLVGKKPGDIDFYVVRENSEGEYSAIGGKAFEGTDREFVLQEAVFTRHGVDRILRYAFEFANQRDAKKITAATKSNGIAVSMPYWDERVDAMAKQYPQIQADKQHVDILAARFVLQPERFDVVVASNLFGDILSDLGPACTGTIGLAASANLNPERKFPSLFEPVHGSAPDIYGKQIANPIAAIWSGAMMFEFFGEEDERCIQAGQDIMQAIENVLINGPKTADIGGQAKTYEVGDAIASCVAQTKMDVFAME
notes: N-terminal His-tag fusion, tetramer
Consider B1, for which, in “purified protein [9]”, the Km (usually the substrate concentration at which the rate is half of its maximum) was determined as 2100 ± 200 µM.

B2: malic semialdehyde dehydrogenase (MSA-DH) (Acinetobacter baumannii ATCC 19606 = CIP 70.34 = JCM 6841) (protein)
chain: MSSLQSTELFQQQAYINGQWLAAQSNATVPVSNPATGEEIGTIPNMGAAEATQAVEAAYTALQSWKALTAQNRADILLAWHKLVLDHTDELALIMTIEQGKPLAEAKGEVRYAASFIQWFAEEGKRIYGDVIPTVNNQQRFIISKEPVGVVAAITPWNFPIAMITRKAAPALAAGCTVVIKPANETPYCALAIAKLAEKAGIPAGVINVVTGKSQEIGSVFTSHEKVKKLTFTGSTPVGRLLMQQCSSTIKKLALELGGNAPLIVFDDADLDKAVQGAIFAKFRNAGQTCVCANRIYVHDNIYQAFAEKFVQEVQKFKVGNGLEDGVQIGPLINEKAVLKAQQLIDDAVSKGAKIACGGKQHALGQTFYEPSVLTNVDRTMEIVQEEIFGPVAPLIRFTDEADVVAQANDTIFGLAAYVYSENISRLWRVSEQLEYGMVGMNATAISNEVVPFGGVKQSGVGREGSKYGLEEFMTIKYMCLGL
notes: N-terminal His-thioredoxin fusion, tetramer
For B2, in “purified protein [10]”, the Km came to 2600 ± 140 µM.

These data come from article PMC11353897, “Biochemical and structural elucidation of the L-carnitine degradation pathway of the human pathogen Acinetobacter baumannii” (Frontiers in Microbiology, 2024).
